Measured values reported in doi:10.1101/2023.05.14.540690.

Target: stressed NISTmAb monoclonal antibody
Experiment: AUC; sedimentation velocity at 50,000 rpm and 20 °C; c(s) analysis in SEDFIT (command line operated, and repeated manually on the same data); stressed, partially denatured sample

Substance: stressed NISTmAb monoclonal antibody
- percent of signal in higher aggregates (command line analysis): 51.8%
- percent of signal in higher aggregates (manual analysis of the same data): 51.7%
- percent of signal in the dimer peak: 12.5%
- stoichiometry N: 2
